Laboratory results from patent US20220242950A1 (CANTARGIA, published 2022).
Read-outs that look alike come from different tables or passages of the source.

T1: rat IL1RAP (rat (Rattus norvegicus), UniProt Q63621 21-367, limits assumed)
T1 construct: also called rnIL1RAP
T1 sequence (looked up): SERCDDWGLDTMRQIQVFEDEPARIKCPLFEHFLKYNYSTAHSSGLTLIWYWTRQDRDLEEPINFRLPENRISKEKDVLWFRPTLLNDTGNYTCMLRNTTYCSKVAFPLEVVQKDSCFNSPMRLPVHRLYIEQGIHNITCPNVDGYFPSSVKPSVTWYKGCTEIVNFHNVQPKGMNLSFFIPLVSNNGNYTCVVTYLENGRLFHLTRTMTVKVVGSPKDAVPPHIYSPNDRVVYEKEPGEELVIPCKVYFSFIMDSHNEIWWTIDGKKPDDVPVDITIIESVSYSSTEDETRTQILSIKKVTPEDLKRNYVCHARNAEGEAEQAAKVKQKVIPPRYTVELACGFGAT

T2: mouse IL1RAP (mouse (Mus musculus), UniProt Q61730 21-367, limits assumed)
T2 construct: Coated ortholog in the cross reactivity ELISA; also called mIL1RAP; murine IL1RAP
T2 sequence (looked up): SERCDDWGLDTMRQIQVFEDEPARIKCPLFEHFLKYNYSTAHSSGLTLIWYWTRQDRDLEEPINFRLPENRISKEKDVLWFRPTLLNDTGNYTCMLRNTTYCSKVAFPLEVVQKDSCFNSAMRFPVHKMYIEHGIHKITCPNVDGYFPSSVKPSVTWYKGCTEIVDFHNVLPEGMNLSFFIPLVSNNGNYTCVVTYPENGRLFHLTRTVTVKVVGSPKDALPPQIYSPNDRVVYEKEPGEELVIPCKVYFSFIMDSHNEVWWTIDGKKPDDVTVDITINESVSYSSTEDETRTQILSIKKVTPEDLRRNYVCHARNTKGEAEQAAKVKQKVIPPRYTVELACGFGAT

T3: human IL1RAP on the cell surface (human, UniProt Q9NPH3 21-570)
T3 sequence (looked up): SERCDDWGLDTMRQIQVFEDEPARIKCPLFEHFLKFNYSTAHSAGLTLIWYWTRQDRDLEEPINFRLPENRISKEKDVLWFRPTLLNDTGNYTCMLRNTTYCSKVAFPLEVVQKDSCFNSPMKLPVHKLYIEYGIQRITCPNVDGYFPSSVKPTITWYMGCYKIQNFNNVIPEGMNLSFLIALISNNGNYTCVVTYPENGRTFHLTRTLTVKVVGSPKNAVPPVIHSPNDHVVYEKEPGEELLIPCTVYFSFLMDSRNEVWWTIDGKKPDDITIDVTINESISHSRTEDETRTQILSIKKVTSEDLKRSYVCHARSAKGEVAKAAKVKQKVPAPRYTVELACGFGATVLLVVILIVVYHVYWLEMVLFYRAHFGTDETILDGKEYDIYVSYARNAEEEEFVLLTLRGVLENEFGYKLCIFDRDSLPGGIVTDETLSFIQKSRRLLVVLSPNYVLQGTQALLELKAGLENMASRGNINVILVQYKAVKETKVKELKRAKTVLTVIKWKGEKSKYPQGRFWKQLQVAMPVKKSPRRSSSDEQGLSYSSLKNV

T4: recombinant hIL1RAP Domain1+2+3 (aa21-367) (human, UniProt Q9NPH3 21-367)
T4 construct: Numbering on Uniprot Q9NPH3
T4 sequence (looked up): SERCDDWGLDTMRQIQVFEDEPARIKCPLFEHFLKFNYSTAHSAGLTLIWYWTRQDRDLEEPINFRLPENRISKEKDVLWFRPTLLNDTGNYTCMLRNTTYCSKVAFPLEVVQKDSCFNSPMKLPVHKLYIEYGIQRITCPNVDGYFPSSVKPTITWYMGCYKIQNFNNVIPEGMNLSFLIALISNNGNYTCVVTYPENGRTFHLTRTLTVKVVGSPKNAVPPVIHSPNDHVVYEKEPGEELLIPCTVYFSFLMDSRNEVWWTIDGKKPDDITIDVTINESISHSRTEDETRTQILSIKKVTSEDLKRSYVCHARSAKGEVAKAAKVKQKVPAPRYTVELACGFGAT

T5: recombinant mf IL1RAP aa21-367 (cynomolgus monkey (Macaca fascicularis), UniProt A0A2K5X5J5 21-367)
T5 construct: also called cynomolgus monkey IL1RAP; cyno IL1RAP
T5 sequence: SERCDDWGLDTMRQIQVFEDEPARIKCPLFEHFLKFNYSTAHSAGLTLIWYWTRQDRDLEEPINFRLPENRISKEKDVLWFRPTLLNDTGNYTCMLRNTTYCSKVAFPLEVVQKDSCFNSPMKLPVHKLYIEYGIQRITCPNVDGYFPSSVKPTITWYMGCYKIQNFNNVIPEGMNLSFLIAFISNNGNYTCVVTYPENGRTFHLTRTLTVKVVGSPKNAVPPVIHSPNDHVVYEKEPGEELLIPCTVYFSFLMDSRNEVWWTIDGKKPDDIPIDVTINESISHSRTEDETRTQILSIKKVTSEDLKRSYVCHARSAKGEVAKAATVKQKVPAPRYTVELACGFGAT


Tests used:
rat IL1RAP = biological target: T1, rat IL1RAP; experiment: indirect ELISA on coated IL1RAP, goat anti-human antibody-alkaline phosphatase, absorbance at 405 nm
Method: (§1) Microtiter plate wells were coated with IL1RAP orthologs (Mus musculus, Rattus norvegicus, Macaca fascicularis (Mf, synonymous to cynomolgus monkey), Oryctolagus cuniculus, Canis lupus familiaris, Sus scrofa) and incubated for 1 hour at 37° C. Plates were washed followed by a blocking step. After 1 hour incubation at room temperature on agitation, the plates were washed again. The antibody was diluted in fourfold serial dilution, ranging from 4000 ng/ml to 0.24 ng/ml, in ELISA blocking solution, and then transferred to the ELISA plate. Plates were incubated at 37° C. in 30 min on agitation and then washed. Goat Anti-Human antibody conjugated to Alkaline Phosphatase was added and incubated 30 min at 37° C. on agitation. The plates were washed followed by addition of substrate (4-Nitrophenyl phosphate disodium salt hexahydrate). The plates were thereafter incubated at room temperature on agitation and absorbance at 405 nm measured consecutively for 50 min. Absorbance at 0 min was taken as background signal.
(§2) The antibody is added in increasing concentrations and absorbance at 405 nm is used to detect binding to IL1RAP. As for chimeric 48D2, the humanized and de-immunized variants h48D2 VH5.GL:VL4 and h48D2 VH5.GL:VL5.GL were cross reactive to IL1RAP from cynomolgus monkey (cyno) and pig, but have no cross reactivity to IL1RAP from mouse, rat, rabbit or dog (FIG. 18 and Table 20).

mouse IL1RAP = biological target: T2, mouse IL1RAP; experiment: as above
Method: as §1, §2

[1] = biological target: T3, human IL1RAP on the cell surface; experiment: cell-based or functional assay
[2] = biological target: T4, recombinant hIL1RAP Domain1+2+3 …; experiment: bio-layer interferometry, human IL1RAP
Method: (§3) Affinity measurements were done on BLItz™ Label-Free Protein Analysis System from ForteBio, using the Basic Kinetics module in the BLItz Pro 1.3.1.3 software from Molecular Devices. Protein A biosensors were hydrated in blocking buffer (PBS, 0.5% BSA, 0.05% Tween 20, pH 7.4) for minimum 10 min at room temperature before coating. Protein A biosensors were coated with antibodies by dipping the biosensors in 200 μl of antibody solution (10 μg/ml in blocking buffer) for 30 min at room temperature. The sensors were then incubated in 200 μl blocking buffer for at least 10 min before use. […] The baseline was made in blocking buffer with a duration time of 30 sec. Association was made for 120 sec in hIL1RAP followed by 120 sec dissociation in blocking buffer.
KD values for affinity towards human IL1RAP are shown in Table 17 for the de-immunized h48D2 variants. Affinity was measured using bio-layer interferometry. […] See also Table 4 for a direct comparison of 48D2, humanized 48D2, and de-immunized h48D2.

[3] = biological target: T4, recombinant hIL1RAP Domain1+2+3 …; experiment: BLI (BLItz), antibody on Protein A biosensor, hIL1RAP (21-367) in solution
Method: as §3
Affinity measurement results are shown in Table 4 for chimeric 48D2, as well as for humanized 48D2 variant VH5:VL4 (see Example 11) and for humanized and de-immunized 48D2 variant VH5.GL:VL4 (see Example 13). kₐ is the association rate constant, for characterization of the antibody binding to the target, kd is the dissociation rate constant, for characterization of the antibody dissociation from the target, and KD is the equilibrium dissociation constant between the antibody and its antigen, the ratio of kd/kₐ. […] The lower the KD value (lower concentration), the higher the affinity.

[4] = biological target: T3, human IL1RAP on the cell surface; experiment: cell-based or functional assay; remark: listed apart in the source
[5] = biological target: T4, recombinant hIL1RAP Domain1+2+3 …; experiment: bio-layer interferometry, human IL1RAP; remark: listed apart in the source
How it was run: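 Antibodies at 10 μg/ml were loaded onto Protein A biosensors for 30 min at room temperature in PBS/0.5% BSA/0.05% Tween 20, pH 7.4. After a 30 sec baseline, association with hIL1RAP ran 120 sec, then 120 sec dissociation in buffer; KD from basic kinetics fitting.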

[6] = biological target: T5, recombinant mf IL1RAP aa21-367; experiment: binding ELISA, coated recombinant mf IL1RAP aa21-367
[7] = biological target: T4, recombinant hIL1RAP Domain1+2+3 …; experiment: binding ELISA, coated recombinant hIL1RAP aa21-367

Row | Binder | binding result (rat IL1RAP) | binding result (mouse IL1RAP) | IC50 of IL-1α signaling (HEK-Blue assay) [1] | IC50 of IL-1β signaling (HEK-Blue assay) [1] | IC50 of IL-33 signaling (HEK-Blue assay) [1] | IC50 of IL-36α signaling (HEK-Blue assay) [1] | IC50 of IL-36β signaling (HEK-Blue assay) [1] | IC50 of IL-36γ signaling (HEK-Blue assay) [1] | Kd [2] | Kd [3] | koff [3] | kon [3] | IC50 of IL-1α signaling (HEK-Blue assay) [4] | IC50 of IL-33 signaling (HEK-Blue assay) [4] | IC50 of IL-36α signaling (HEK-Blue assay) [4] | IC50 of IL-36β signaling (HEK-Blue assay) [4] | IC50 of IL-36γ signaling (HEK-Blue assay) [4] | Kd [5] | IC50 [6] | IC50 [7]
1 | h48D2 VH5.GL:VL5.GL (antibody, human IgG1, kappa, L234A L235A, Humanized and de-immunized; also called VL5.GL:VH5.GL) heavy: not shown light: DIQMTQSPSTLSASVGDRVTITCQASESISTALAWYQQKPGQPPKLLIYKASTLPSGVPSRFSGSGSGTEFTLTISDLESDDAATYYCQQGFSSGNVHNAFGGGTEVVVKRTVAAPSVFIFPPSDEQLKSGTASVVCLLNNFYPREAKVQWKVDNALQSGNSQESVTEQDSKDSTYSLSSTLTLSKADYEKHKVYACEVTHQGLSSPVTKSFNRGEC | no binding (tested: 4000 ng/mL) | no binding (tested: 4000 ng/mL) | 0.24 nM | 0.13 nM | 3.56 nM | 0.174 nM | 0.185 nM | 0.244 nM | 1.47 nM | – | – | – | – | – | – | – | – | – | – | –
2 | h48D2 VH5:VL4 (antibody, human IgG1, kappa, L234A L235A, V domains shown, Humanized; also called VL4:VH5; humanized 48D2 variant VH5:VL4) VH: QEQLEESGGGLVKPGGTLSLTCTVSGPSLSHFDITWIRQAPGSGLEWIGTISPGVSTYYASWAKSRVTISVDTSLNTVSLKLSSVTAADTATYFCARGGVGSSWKAFDLWGPGTLVTISS VL: ELVMTQSPSSVSASVGDRVTITCQASESISTALAWYQQKPGKAPKLLIYKASTLPSGVPSRFSGSGSGTDFTLTINSLQPEDFATYYCQQGFSSGNVHNAFGGGTKVEIKR | – | – | – | – | – | – | – | – | – | 2.74 nM | 0.000172 s⁻¹ | 60200 M⁻¹ s⁻¹ | 6.47 nM | 2 nM | ~0.0025 nM | ~0.342 nM | 2.83 nM | 1.67 nM | 0.028 µg/mL | 0.0258 µg/mL
